System: Escherichia coli TOP10
Experiment: shrunken log2 fold change of peptide-encoding DNA abundance (4.5 h post-induction vs induction); higher = less antimicrobial activity (less host growth inhibition)
Conditions: time post-induction: 4.5 h; library: site-saturation at positions 5, 18, 19, 20
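Note: peptides expressed intracellularly from a pBAD plasmid library in pooled LB shake-flask culture, induced with 0.3% L-arabinose, DNA abundance read by NGS, three biological replicates, DESeq2 with apeglm shrinkage.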

Sequence	shrunken log2 fold change
RRIRVRPPRLPRPRPRPDYEPRP	0.0678
RRIRDRPPRLPRPRPRPGRCPRP	0.53
RRIRNRPPRLPRPRPRPETYPRP	-0.554
RRIRWRPPRLPRPRPRPYTMPRP	-0.335
RRIRCRPPRLPRPRPRPWIFPRP	-0.159
RRIRVRPPRLPRPRPRPFYAPRP	-0.357
RRIRKRPPRLPRPRPRPELFPRP	0.155
RRIRIRPPRLPRPRPRPDEEPRP	-0.00176
RRIRNRPPRLPRPRPRPSAKPRP	-0.0395
RRIRFRPPRLPRPRPRPPLAPRP	0.628
RRIRYRPPRLPRPRPRPQFRPRP	-0.18
RRIRGRPPRLPRPRPRPFTEPRP	0.104
RRIRIRPPRLPRPRPRPEWSPRP	-0.26
RRIRPRPPRLPRPRPRPGPCPRP	0.363
RRIRHRPPRLPRPRPRPCMHPRP	-0.38
RRIRHRPPRLPRPRPRPDVKPRP	-0.0186
RRIRMRPPRLPRPRPRPEYMPRP	-0.00213
RRIRVRPPRLPRPRPRPSWSPRP	0.0478
RRIRSRPPRLPRPRPRPIGFPRP	-0.0486
RRIRSRPPRLPRPRPRPQMGPRP	-0.046

Sequence	shrunken log2 fold change
RRIRRRPPRLPRPRPRPDIRPRP	-0.294
RRIRLRPPRLPRPRPRPFFPPRP	-0.225
RRIRVRPPRLPRPRPRPCCPPRP	-0.25
RRIRFRPPRLPRPRPRPCRYPRP	-0.0124
RRIRKRPPRLPRPRPRPSAPPRP	0.504
RRIRNRPPRLPRPRPRPHSFPRP	-0.258
RRIRNRPPRLPRPRPRPPPYPRP	0.534
RRIRWRPPRLPRPRPRPHLNPRP	0.0153
RRIRARPPRLPRPRPRPSKSPRP	0.0305
RRIRWRPPRLPRPRPRPHCIPRP	-0.207
RRIRYRPPRLPRPRPRPRTGPRP	-0.0225
RRIRIRPPRLPRPRPRPLWIPRP	-0.445
RRIRARPPRLPRPRPRPERHPRP	0.58
RRIRRRPPRLPRPRPRPFTLPRP	-0.2
RRIRCRPPRLPRPRPRPWGMPRP	-0.16
RRIRMRPPRLPRPRPRPQIRPRP	-0.0442
RRIRWRPPRLPRPRPRPNINPRP	-0.429
RRIRERPPRLPRPRPRPTTWPRP	0.0447
RRIRSRPPRLPRPRPRPEPQPRP	0.397
RRIRFRPPRLPRPRPRPVLNPRP	-0.282

Sequence	shrunken log2 fold change
RRIRGRPPRLPRPRPRPWTWPRP	0.339
RRIRNRPPRLPRPRPRPYKLPRP	-0.66
RRIRHRPPRLPRPRPRPDIEPRP	0.0242
RRIRSRPPRLPRPRPRPGRYPRP	-0.344
RRIRLRPPRLPRPRPRPDYAPRP	-0.224
RRIRPRPPRLPRPRPRPENKPRP	-0.232
RRIRFRPPRLPRPRPRPNNYPRP	-0.539
RRIRARPPRLPRPRPRPEIMPRP	0.43
RRIRGRPPRLPRPRPRPYGDPRP	-0.176
RRIRDRPPRLPRPRPRPRMGPRP	0.161
RRIRARPPRLPRPRPRPNFMPRP	0.186
RRIRHRPPRLPRPRPRPEERPRP	-0.0858
RRIRLRPPRLPRPRPRPAWMPRP	-0.0208
RRIRRRPPRLPRPRPRPLNCPRP	-0.304
RRIRHRPPRLPRPRPRPMPVPRP	-0.0266
RRIRDRPPRLPRPRPRPKSYPRP	0.0134
RRIRVRPPRLPRPRPRPVDDPRP	0.177
RRIRGRPPRLPRPRPRPYPFPRP	-0.164
RRIRYRPPRLPRPRPRPIPRPRP	0.0268
RRIRSRPPRLPRPRPRPHERPRP	7.23e-05

Reference: the supplement of paper PMC9112550, “Optimization of the antimicrobial peptide Bac7 by deep mutational scanning” (BMC Biology, 2022)
